Measurements reported in the RNAGym collection of RNA variant scans (doi:10.1073/pnas.2313332121).

B1: TPR t1 (parent)
chain: GACCAAUCUGCCCUCAGAGCUCGAGAACAUCUUCGGAUGCAGAGGAGGCAGGCUUCGGUGGCGCGAUAGCGCCAACGUCCUCAACCUCCAAUGCAUCCCACCACAUGAUGAUGCCUGAAGAGCCUUGGUUUUUUG

Variants of: B1
Test: polymerase ribozyme fitness, log enrichment relative to wild type (log ratio); higher = more active; in vitro selection for triplet polymerase activity
Procedure, shortened: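 Mutant libraries were PCR-built and transcribed for each subunit of a heterodimeric triplet polymerase ribozyme and selected for one round in triplicate at −7 °C, frozen, before gel excision of extended constructs and streptavidin-bead capture. Input and output libraries were Illumina-sequenced, keeping genotypes with ≥10 input reads and ≥1 read per output. Fitness is a logarithmic ratio of genotype to wild-type enrichment, in base 2, using inverse-variance-weighted replicate averages.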

Variant	polymerase ribozyme fitness (log ratio)
A105C C115U	-4.02
C101U G120U	-1.36
C101U G120C	-0.354
C101A G110U	-3.04
C104U C115U	-0.334
C102U C124G	0.125
C102U C124A	-0.401
C101A A121U	-0.684
C97G C114U	-5.14
C99A G127A	-5.8
C104U G122A	0.442
C104U C123G	1.92
C99U U112C G117A G128A	-5.01
C101A C114G	-3.4
C97G C101U A121C	-2.97
C104A U106A	-2.51
U109A C124U	-4.15
A100U U116C G128U U130A	-5.48
U109A U112A	-4.47
U109C A121G C124A G127C	-3.66
U106C U125A	-0.83
C102U A119U C123A U126A	-2.22
U106G C123G C124G	1.38
U106A U126C	-0.645

Variant	polymerase ribozyme fitness (log ratio)
C98U C114G	-5.02
C98U C114U	-3.88
C99A C123U	-6.27
C102A U126G	-2.89
G107A U133G	-4.3
C98A A118U	-4.71
G107A U130G	-6.83
C102A G120A A121C C124U	-0.193
U96C A105U	-3.06
G107C G135U	-5.77
C97A G120C	-4.1
C97A G120U	-4.3
C97A G120A	-3.9
U109C C115A	-3.11
C101A G113U	-3.79
C101A A111C	-0.305
C102U G120A	-1.2
C98G G110A	-4.98
C101G G120U U129A	-3.12
C97A U125A	-5.2
C101A C102A A119U U130A	-5.43
A103U G120A C123U	-4.53
C101A C115A G120C	-0.291
U96C U133A	-0.456

Variant	polymerase ribozyme fitness (log ratio)
G107U G117C	-4.7
C98A C101U G110U G120U C123G U130G	-5.9
C101G G110A	-4.15
C104A U133A	-1.68
C104A C123G	-0.779
C104A C123A	-1.7
C97G G107C A111U	-7.12
C101A G135U	-2.11
C99U G113A G117A	-5.78
A105G A121C	-0.542
U106G U130G	-1.21
C99U A121U	-0.669
G107A U112A	-5.07
C102A U106G	-4.52
C104U A118G	0.462
U106G U112A G120C	-3.09
C102A U106A C115A U129A	-4.5
A100U G117U	-3.66
C104U G128C	-1.84
U106A C123A	0.524
C97U U129C	-1.16
U106A U116C	-0.567
A100C U130C	-0.362
A108G G120A C124G U131G	-0.578

Variant	polymerase ribozyme fitness (log ratio)
U109C U126A	-4.99
A103U U130G	-5.63
A105U G120U C123U	-2.19
C102G U106C C114G C123A	-6.08
C97U U116G G135U	-3.49
C102A U112A C115A U116G C124G U133C	-3.77
U96G U125A	-0.674
U109A U133A	-5.88
U106C U132A	-0.182
C99U C114A	-4.84
C101U G128C	-2.13
A103U G127U U129G	-3.98
U109A U116G	-5.73
U109A C115G	-7.19
C101A C115A A121C U125A	-0.732
C98U C99A A118U U130C	-5.55
U96C C114G	-2.45
U96C C114U	-2.44
C102A G110A	-4.38
U106A G117U	-2.19
G107A U132A	-5.08
C101U C102G	-6.19
C101U C104G U109G	-6.55
A103U A111G	-3.31

Variant	polymerase ribozyme fitness (log ratio)
U106A C114A	-1.93
C99U U133G	-2.59
C99U	-3.02
C99G	-7.03
C99A	-6.24
C102U G110C	-7.27
C101A G110U A119G	-2.89
A105G U109A	-5.94
A103U	-4.71
A103G	-3.07
A103C	-5.01
C97G G120A A121U	-3.45
C98U G117U G120C U132C	-3.23
C97U A105C	-4.58
A108G G135U	-2.4
C102U G122A	-2.08
U96G U130G	-1.28
C101G U133A	-1.55
C102G	-5.93
C102A	-1.87
C102U	-1.71
G107A G117A	-5.11
C102U U109G	-5.46
U96G C102G G113U	-5.71

Variant	polymerase ribozyme fitness (log ratio)
U96C C123A	1.12
A100U G120U	-1.23
C101G U129G	-2.29
U109C U130C	-5.04
C97U U112G U116A U129C	-4.3
A103U G110C	-7.11
U106A C114G U133C	-2.16
A100C A121C	0.337
C104A A118U U125G U130A	-3.67
A105U G127C	-2.7
A105G U132A	-1.89
A100C A111G	0.924
C104U G120U G135U	-0.513
C98A C123A	-3.79
U96C U112A A121U	1.86
C101U A111C	0.393
U106C C114A G120C	-2.21
C101G G135U	-2.44
U106A G128C	-2.95
A105C G117A	-5.32
A105U U125A	-2.77
C98U U126C	-1.99
U96A U130C	-0.978
A100C U106A	-0.525

Variant	polymerase ribozyme fitness (log ratio)
C101U G113A	-1.2
C97G U130G	-4.67
A103G C124U	-3.1
C104U A111G	0.178
A103U A119G	-4.5
U106C U116A	-2.94
C99U G128U	-5.25
A105C C114A A121G	-3.08
C101A U106C U133A	-0.867
A108G U109A C124A	-4.41
C97U U106G C123U	-2.04
A103C G113C	-5.94
C104U U109G	-3.57
U96C G110A	-0.613
U96C G110U	-0.753
C99A A103C C104A	-4.54
A108C C123A	-4.12
C97G U129A	-5.28
C101A A105G	-3.13
A100C C102G	-4.98
A100C C102U	-5.66
C102U C114A	-3.75
C102U C114G	-4.58
